Laboratory results taken from the supplement of paper PMC10065799, “High-throughput profiling of sequence recognition by tyrosine kinases and SH2 domains using bacterial peptide display” (eLife, 2023).

What was measured:
SHP2-C SH2 = assay: SH2 binding enrichment of the phosphorylated peptide, bacterial display (enrichment ratio); higher = better substrate or ligand; peptides without Tyr show the background
Grb2 SH2 = Grb2 SH2 (UniProt P62993); assay: as above
c-Src SH2 = assay: as above
EPHB2 = EPHB2 (UniProt P29323); assay: phosphorylation enrichment, bacterial display (enrichment ratio); higher = better substrate or ligand; peptides without Tyr show the background
AncSZ = assay: as above
FGFR3 = FGFR3 (UniProt P22607); assay: as above
MERTK = MERTK (UniProt Q12866); assay: as above
Jak2 = Jak2 (UniProt O60674); assay: as above
Fer (mouse) = assay: as above
Hck = Hck (UniProt P08631); assay: as above
EPHB1 = EPHB1 (UniProt P54762); assay: as above
c-Src = assay: as above
Fyn = Fyn (UniProt P06241); assay: as above
FGFR1 = FGFR1 (UniProt P11362); assay: as above
c-Abl (mouse) = assay: as above
Fes = Fes (UniProt P07332); assay: as above
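Wherever SH2 binding enrichment of the phosphorylated peptide, bacterial display is given: peptide library displayed on the E. coli surface as eCPX fusions, selected cells deep-sequenced, score is each peptide's frequency after selection divided by its frequency in the input.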
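Wherever phosphorylation enrichment, bacterial display is given: 11-residue human phosphosite peptides and single-mutation variants displayed on the E. coli surface, counted by deep sequencing, each peptide's frequency after selection divided by its frequency in the unselected input library; frequency after pTyr selection over input frequency; kinase dosed for 20-30% of maximal phosphorylation in three min.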

Sequence of EPHB2 (P29323 whole entry, looked up): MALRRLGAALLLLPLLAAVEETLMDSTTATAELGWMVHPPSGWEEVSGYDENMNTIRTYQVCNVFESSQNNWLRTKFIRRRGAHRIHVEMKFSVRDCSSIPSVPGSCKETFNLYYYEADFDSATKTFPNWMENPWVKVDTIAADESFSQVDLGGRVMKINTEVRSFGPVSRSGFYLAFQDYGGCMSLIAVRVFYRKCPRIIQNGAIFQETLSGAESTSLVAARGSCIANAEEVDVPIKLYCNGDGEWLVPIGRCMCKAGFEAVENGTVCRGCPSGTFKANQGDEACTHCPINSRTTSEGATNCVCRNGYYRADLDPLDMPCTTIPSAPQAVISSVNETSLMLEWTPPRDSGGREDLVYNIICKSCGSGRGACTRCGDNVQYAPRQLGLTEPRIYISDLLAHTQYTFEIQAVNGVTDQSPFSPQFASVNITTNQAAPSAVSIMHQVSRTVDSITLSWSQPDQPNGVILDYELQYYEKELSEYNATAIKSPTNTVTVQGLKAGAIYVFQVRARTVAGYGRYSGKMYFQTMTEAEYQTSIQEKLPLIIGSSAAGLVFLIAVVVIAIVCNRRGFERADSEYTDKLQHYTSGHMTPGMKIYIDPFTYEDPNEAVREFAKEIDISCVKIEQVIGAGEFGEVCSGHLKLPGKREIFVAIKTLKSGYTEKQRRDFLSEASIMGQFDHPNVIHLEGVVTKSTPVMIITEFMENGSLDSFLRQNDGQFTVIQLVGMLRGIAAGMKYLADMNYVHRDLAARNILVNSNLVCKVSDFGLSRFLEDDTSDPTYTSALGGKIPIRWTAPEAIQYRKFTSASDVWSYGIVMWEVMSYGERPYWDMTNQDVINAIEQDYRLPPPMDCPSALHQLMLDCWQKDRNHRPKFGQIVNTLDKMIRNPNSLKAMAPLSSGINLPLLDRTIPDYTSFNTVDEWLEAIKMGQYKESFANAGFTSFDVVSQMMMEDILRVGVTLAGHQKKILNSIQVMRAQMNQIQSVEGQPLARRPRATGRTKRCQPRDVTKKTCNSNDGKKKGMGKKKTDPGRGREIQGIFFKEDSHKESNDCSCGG
Sequence of Hck (P08631 whole entry, looked up): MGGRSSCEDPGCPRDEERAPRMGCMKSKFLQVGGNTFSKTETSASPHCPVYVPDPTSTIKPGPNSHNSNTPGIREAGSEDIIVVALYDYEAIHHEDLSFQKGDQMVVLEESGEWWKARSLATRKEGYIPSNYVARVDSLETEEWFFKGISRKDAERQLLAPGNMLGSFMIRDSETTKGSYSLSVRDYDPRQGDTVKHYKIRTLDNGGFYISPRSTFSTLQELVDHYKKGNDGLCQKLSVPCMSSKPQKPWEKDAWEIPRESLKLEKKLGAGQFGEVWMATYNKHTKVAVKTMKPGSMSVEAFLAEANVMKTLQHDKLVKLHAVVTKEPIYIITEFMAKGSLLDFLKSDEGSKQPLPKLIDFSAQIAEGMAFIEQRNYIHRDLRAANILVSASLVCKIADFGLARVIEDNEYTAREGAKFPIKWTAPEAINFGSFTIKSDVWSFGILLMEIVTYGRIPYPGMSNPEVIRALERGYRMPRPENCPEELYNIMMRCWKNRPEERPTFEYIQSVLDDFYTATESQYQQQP
Sequence of FGFR3 (P22607 whole entry, looked up): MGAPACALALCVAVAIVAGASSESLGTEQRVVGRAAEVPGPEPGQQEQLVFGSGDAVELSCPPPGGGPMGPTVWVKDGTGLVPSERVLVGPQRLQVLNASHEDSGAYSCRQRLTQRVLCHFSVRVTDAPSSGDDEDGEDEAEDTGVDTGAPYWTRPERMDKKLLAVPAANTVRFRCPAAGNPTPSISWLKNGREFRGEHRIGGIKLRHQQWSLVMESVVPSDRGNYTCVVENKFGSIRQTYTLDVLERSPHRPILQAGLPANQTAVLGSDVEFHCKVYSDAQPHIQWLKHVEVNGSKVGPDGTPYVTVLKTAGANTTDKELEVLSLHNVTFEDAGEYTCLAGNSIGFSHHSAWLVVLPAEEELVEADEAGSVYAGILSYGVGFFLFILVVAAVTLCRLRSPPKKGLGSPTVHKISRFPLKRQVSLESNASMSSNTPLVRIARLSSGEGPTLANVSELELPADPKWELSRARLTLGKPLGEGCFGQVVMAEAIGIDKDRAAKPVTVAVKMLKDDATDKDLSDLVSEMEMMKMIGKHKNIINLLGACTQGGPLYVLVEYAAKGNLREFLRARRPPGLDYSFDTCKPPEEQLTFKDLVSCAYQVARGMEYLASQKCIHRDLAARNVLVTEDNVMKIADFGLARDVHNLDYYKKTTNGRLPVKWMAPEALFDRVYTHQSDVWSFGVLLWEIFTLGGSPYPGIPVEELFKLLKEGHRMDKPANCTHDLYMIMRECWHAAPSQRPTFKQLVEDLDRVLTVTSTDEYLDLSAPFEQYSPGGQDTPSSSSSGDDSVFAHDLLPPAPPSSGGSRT
Sequence of EPHB1 (P54762 whole entry, looked up): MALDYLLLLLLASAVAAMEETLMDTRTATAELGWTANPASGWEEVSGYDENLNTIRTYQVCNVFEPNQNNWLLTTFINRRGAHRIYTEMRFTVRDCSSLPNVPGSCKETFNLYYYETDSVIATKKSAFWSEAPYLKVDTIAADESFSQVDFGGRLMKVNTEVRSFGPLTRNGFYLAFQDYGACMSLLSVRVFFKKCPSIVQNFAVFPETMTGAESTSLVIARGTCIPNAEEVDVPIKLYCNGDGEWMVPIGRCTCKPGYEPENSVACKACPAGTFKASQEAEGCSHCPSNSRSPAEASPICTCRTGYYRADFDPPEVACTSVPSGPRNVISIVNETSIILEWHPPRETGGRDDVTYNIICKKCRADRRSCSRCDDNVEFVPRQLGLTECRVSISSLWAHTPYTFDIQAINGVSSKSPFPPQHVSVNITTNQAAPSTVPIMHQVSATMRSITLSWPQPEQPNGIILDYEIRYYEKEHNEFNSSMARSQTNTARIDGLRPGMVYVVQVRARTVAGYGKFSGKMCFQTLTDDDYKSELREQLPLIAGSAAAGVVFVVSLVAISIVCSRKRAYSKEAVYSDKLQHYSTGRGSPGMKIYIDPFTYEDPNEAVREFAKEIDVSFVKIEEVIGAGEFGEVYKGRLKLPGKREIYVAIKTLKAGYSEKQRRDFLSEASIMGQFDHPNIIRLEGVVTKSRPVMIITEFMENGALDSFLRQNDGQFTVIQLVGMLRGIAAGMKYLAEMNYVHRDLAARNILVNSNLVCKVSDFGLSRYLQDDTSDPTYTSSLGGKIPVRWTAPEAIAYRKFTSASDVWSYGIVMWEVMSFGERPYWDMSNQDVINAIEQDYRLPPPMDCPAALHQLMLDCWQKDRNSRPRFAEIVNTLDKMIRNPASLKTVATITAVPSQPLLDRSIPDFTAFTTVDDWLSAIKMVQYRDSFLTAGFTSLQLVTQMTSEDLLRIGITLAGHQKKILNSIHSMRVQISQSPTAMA
Sequence of Fes (P07332 whole entry, looked up, the tested form may be a part): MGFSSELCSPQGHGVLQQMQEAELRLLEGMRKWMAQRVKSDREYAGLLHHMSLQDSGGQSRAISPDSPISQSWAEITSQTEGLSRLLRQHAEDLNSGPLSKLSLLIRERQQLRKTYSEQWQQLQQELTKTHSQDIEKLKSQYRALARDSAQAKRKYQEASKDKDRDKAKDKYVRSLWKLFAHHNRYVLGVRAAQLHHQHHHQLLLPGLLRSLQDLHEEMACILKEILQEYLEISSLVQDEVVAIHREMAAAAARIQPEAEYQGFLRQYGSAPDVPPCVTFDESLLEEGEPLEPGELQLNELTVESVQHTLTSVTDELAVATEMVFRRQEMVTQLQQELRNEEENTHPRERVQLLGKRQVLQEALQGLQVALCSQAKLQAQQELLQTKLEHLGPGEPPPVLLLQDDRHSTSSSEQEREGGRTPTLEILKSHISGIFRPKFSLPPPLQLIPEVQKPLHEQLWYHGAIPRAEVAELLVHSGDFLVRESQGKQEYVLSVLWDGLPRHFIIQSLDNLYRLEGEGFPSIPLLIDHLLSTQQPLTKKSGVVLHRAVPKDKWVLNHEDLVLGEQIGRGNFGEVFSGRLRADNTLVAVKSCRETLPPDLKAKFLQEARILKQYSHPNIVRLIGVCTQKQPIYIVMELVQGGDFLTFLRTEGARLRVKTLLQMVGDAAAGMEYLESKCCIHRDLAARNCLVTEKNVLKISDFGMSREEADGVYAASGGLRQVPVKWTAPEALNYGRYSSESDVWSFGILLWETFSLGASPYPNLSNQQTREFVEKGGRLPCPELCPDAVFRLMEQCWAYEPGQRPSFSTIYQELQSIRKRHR
Sequence of FGFR1 (P11362 whole entry, looked up): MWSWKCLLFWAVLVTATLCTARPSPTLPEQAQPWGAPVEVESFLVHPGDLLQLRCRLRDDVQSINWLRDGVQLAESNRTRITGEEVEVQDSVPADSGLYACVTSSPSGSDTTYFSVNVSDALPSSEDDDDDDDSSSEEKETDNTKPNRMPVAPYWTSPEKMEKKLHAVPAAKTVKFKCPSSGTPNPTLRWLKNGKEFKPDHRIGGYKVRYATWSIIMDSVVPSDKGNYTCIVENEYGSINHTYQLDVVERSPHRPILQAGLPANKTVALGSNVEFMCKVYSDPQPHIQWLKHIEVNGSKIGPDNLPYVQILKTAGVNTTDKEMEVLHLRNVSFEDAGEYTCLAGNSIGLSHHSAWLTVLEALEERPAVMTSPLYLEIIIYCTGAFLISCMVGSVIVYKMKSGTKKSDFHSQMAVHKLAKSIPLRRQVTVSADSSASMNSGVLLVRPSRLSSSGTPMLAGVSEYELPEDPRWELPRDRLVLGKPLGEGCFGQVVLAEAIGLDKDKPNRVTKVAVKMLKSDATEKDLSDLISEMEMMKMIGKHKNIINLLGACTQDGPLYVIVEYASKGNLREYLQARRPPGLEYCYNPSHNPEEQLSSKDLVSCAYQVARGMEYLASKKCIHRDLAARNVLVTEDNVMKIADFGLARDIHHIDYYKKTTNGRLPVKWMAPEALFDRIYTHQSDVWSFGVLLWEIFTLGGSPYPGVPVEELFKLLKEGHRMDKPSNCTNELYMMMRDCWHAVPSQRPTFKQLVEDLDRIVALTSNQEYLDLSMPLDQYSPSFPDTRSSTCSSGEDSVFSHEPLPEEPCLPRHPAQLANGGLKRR

Row | Sequence | SH2 binding enrichment (SHP2-C SH2) | SH2 binding enrichment (Grb2 SH2) | SH2 binding enrichment (c-Src SH2) | phosphorylation enrichment (EPHB2) | phosphorylation enrichment (AncSZ) | phosphorylation enrichment (FGFR3) | phosphorylation enrichment (MERTK) | phosphorylation enrichment (Jak2) | phosphorylation enrichment (Fer (mouse)) | phosphorylation enrichment (Hck) | phosphorylation enrichment (EPHB1) | phosphorylation enrichment (c-Src) | phosphorylation enrichment (Fyn) | phosphorylation enrichment (FGFR1) | phosphorylation enrichment (c-Abl (mouse)) | phosphorylation enrichment (Fes)
1 | SSPMKYQQNVS [EGFEM1P_Y160] | 0.661 | 0.878 | 0.432 | 0.352 | 0.541 | 0.408 | 0.398 | 0.623 | 0.392 | 0.412 | 0.319 | 0.397 | 0.339 | 0.334 | 0.562 | 0.592
2 | CLAKMYYSAVD [CP_Y539] | 0.902 | 0.942 | 3.43 | 0.701 | 1.14 | 0.936 | 2.33 | 0.956 | 1.18 | 0.708 | 1.02 | 0.722 | 0.572 | 0.812 | 0.674 | 1.18
3 | RELGEYGLQAY [ALDH2_Y497] | 0.749 | 0.745 | 0.451 | 0.754 | 1.55 | 0.977 | 0.562 | 1.32 | 0.949 | 0.824 | 0.699 | 0.696 | 0.822 | 0.676 | 0.962 | 1.61
4 | SHGKQYRVPSD [HHIPL2_Y395_R394Q] | 0.475 | 0.686 | 0.403 | 0.371 | 0.54 | 0.427 | 0.347 | 0.46 | 0.354 | 0.4 | 0.35 | 0.353 | 0.34 | 0.344 | 0.512 | 0.544
5 | NPIGLYSAETL [LDB3_Y202] | 0.769 | 0.813 | 0.486 | 1.74 | 0.691 | 0.498 | 4.18 | 0.71 | 1.12 | 0.967 | 1.73 | 0.962 | 0.666 | 0.451 | 0.496 | 0.72
6 | AEEKEYHAEGG [EGFR_Y869] | 0.748 | 0.924 | 0.471 | 0.593 | 1.09 | 0.596 | 0.403 | 0.908 | 0.572 | 0.451 | 0.623 | 0.486 | 0.536 | 0.474 | 0.653 | 1.05
7 | AGADGYDYLAP [FOXL2_Y186_G187D] | 0.478 | 0.89 | 4.34 | 0.587 | 3.5 | 0.783 | 0.647 | 0.997 | 0.62 | 0.903 | 0.585 | 0.388 | 0.534 | 0.611 | 0.655 | 0.99
8 | FAKTQYPDVFA [CRX_Y63_YF] | 0.544 | 0.803 | 0.486 | 0.45 | 0.876 | 0.525 | 0.38 | 0.724 | 0.388 | 0.483 | 0.469 | 0.351 | 0.364 | 0.454 | 0.478 | 0.74
9 | KNKLNYTLPQD [NRAP_Y523] | 0.834 | 0.944 | 0.648 | 0.436 | 0.584 | 0.451 | 0.347 | 0.567 | 0.39 | 0.406 | 0.409 | 0.35 | 0.372 | 0.419 | 0.468 | 0.523
10 | ENAGYYFRISA | 0.776 | 0.661 | 0.6 | 0.781 | 1.51 | 0.852 | 0.369 | 1.36 | 0.523 | 0.534 | 0.797 | 0.356 | 0.488 | 0.527 | 0.764 | 1.48
11 | KASRKYYAMKI [AKT3_Y173_G171R] | 0.79 | 1.03 | 0.652 | 0.304 | 0.416 | 0.353 | 0.5 | 0.484 | 0.589 | 0.339 | 0.22 | 0.257 | 0.267 | 0.481 | 0.393 | 0.476
12 | EKLQKYFRKNP [EHHADH_Y682_Q685K_YF] | 0.802 | 0.914 | 0.549 | 0.615 | 0.613 | 0.553 | 0.567 | 0.991 | 0.514 | 0.646 | 0.693 | 0.613 | 0.527 | 0.473 | 0.763 | 0.895
13 | KPPPSYESEEE [BRD4_Y599_T598S] | 0.517 | 1.04 | 0.762 | 0.761 | 1.42 | 0.71 | 0.543 | 1.32 | 0.557 | 0.601 | 0.611 | 0.591 | 0.639 | 0.584 | 0.957 | 1.29
14 | LHRHAYPEQQQ [DPPA2_Y127_R131Q] | 0.839 | 1.02 | 0.906 | 0.811 | 0.726 | 0.828 | 0.401 | 0.645 | 0.743 | 0.474 | 0.837 | 0.559 | 0.824 | 1.07 | 0.716 | 0.901
15 | PEPHIYAVADV [MYO9A_Y216_L211P] | 0.654 | 0.909 | 4.08 | 2.18 | 1.11 | 1.01 | 2.97 | 0.695 | 3.02 | 3.16 | 1.11 | 3.72 | 3.21 | 0.667 | 25 | 1.55
16 | THPFLYLTLEI [MLH1_Y293_S295T] | 0.688 | 0.873 | 0.623 | 0.889 | 1.71 | 1.23 | 0.524 | 1.97 | 0.778 | 0.556 | 0.889 | 0.548 | 0.473 | 0.652 | 1.22 | 2
17 | HSLHDYKEALM [ADA2_Y337] | 0.426 | 0.702 | 0.418 | 0.448 | 0.663 | 0.567 | 0.431 | 0.696 | 0.44 | 0.342 | 0.546 | 0.522 | 0.444 | 0.371 | 0.664 | 0.844
18 | LNTFHHAGVSA [POLR2A_Y1109_Y1109H] | 0.65 | 0.956 | 0.547 | 0.76 | 0.884 | 0.731 | 0.883 | 1.19 | 0.766 | 0.575 | 0.632 | 1.17 | 0.356 | 0.462 | 1.36 | 2.04
19 | HLATEYVFSDF [PANX1_Y10_Q5H] | 0.884 | 0.755 | 0.576 | 1.04 | 2.12 | 1.23 | 0.639 | 1.17 | 0.788 | 0.661 | 0.808 | 1.28 | 0.935 | 1.67 | 0.863 | 1.39

Continued, in another order:

Row | SH2 binding enrichment (SHP2-C SH2) | SH2 binding enrichment (Grb2 SH2) | SH2 binding enrichment (c-Src SH2) | Sequence | phosphorylation enrichment (EPHB2) | phosphorylation enrichment (AncSZ) | phosphorylation enrichment (FGFR3) | phosphorylation enrichment (MERTK) | phosphorylation enrichment (Jak2) | phosphorylation enrichment (Fer (mouse)) | phosphorylation enrichment (Hck) | phosphorylation enrichment (EPHB1) | phosphorylation enrichment (c-Src) | phosphorylation enrichment (Fyn) | phosphorylation enrichment (FGFR1) | phosphorylation enrichment (c-Abl (mouse)) | phosphorylation enrichment (Fes)
20 | 0.542 | 0.622 | 0.581 | TTSQPYRRLCS [USH2A_Y534_C536R] | 0.393 | 0.412 | 0.479 | 0.316 | 0.355 | 0.315 | 0.286 | 0.247 | 0.356 | 0.29 | 0.287 | 0.288 | 0.866
21 | 0.474 | 0.666 | 0.436 | SVTCTYSPALT [TP53_Y126_N131T] | 0.615 | 1.75 | 0.908 | 0.432 | 1.6 | 0.706 | 0.694 | 0.872 | 0.741 | 0.446 | 0.524 | 1.2 | 1.76
22 | 1.12 | 0.962 | 3.79 | CTTNHYNFMCN [TP53_Y234_I232N_YF] | 0.544 | 0.811 | 0.556 | 0.437 | 0.511 | 0.486 | 0.424 | 0.436 | 0.497 | 0.463 | 0.626 | 0.489 | 0.67
23 | 0.606 | 12.9 | 0.661 | EERKTYVNTML [TEK_Y1102_T1106M] | 0.442 | 0.71 | 0.506 | 0.354 | 0.637 | 0.42 | 0.378 | 0.385 | 0.362 | 0.44 | 0.428 | 0.55 | 0.803
24 | 0.545 | 0.801 | 0.604 | CEHFSYFGMKA [SLC15A2_Y60_R57H_YF] | 0.516 | 0.879 | 0.902 | 0.469 | 3.82 | 0.452 | 0.444 | 0.555 | 0.673 | 0.379 | 1.61 | 0.605 | 0.845
25 | 0.739 | 0.748 | 0.472 | LTFPDYLPCSV [SAG_Y129] | 0.601 | 2.34 | 3.07 | 0.463 | 2.91 | 0.715 | 0.479 | 0.879 | 0.535 | 0.427 | 3.74 | 1.13 | 1.44
26 | 0.958 | 0.775 | 0.634 | GPCKAYELSQR [SETX_Y1297_R1294C] | 0.63 | 0.735 | 0.547 | 0.451 | 0.66 | 0.496 | 0.467 | 0.416 | 0.546 | 0.533 | 0.547 | 0.664 | 0.969
27 | 0.262 | 0.773 | 1.29 | TVLEPYADPYY [ZC3H18_Y367] | 0.697 | 2.42 | 0.905 | 0.712 | 1.58 | 0.516 | 0.834 | 0.566 | 2.44 | 1.23 | 0.785 | 1.25 | 1.69
28 | 1.19 | 0.92 | 2.12 | IYRAAYFGVYD [SLC25A4_Y191] | 1.33 | 1.15 | 0.771 | 1.26 | 0.982 | 0.937 | 5.56 | 1.2 | 4.49 | 5.53 | 0.554 | 0.955 | 1.21
29 | 0.919 | 1.04 | 0.557 | RPSELYFSKIG [SMG1_Y2253_YF] | 0.457 | 0.605 | 0.654 | 0.791 | 0.51 | 0.421 | 1.74 | 0.49 | 0.623 | 0.546 | 0.641 | 0.687 | 0.671
